Patent US20250042957A1 (Molecular Partners, published 2025)
Read-outs that look alike come from different tables or passages of the source.

Columns and labels:
scCD3εγ [1] = molecular target: T1, scCD3εγ; assay: ELISA: plate-bound biotinylated scCD3εγ, His-tagged construct titrated in presence of 100 nM soluble VEGF
T1 chain 1: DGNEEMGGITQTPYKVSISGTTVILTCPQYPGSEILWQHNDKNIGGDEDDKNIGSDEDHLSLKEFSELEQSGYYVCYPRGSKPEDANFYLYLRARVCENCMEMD
T1 chain 2: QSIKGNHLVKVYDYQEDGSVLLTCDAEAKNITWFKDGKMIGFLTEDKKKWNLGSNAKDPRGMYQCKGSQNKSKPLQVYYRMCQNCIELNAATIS
Description: (§1) The difference in binding of Switchdrug DARPins to scCD3εγ in presence and absence of VEGF was assessed. […] Said Switchdrug DARPins were mixed with a constant concentration of VEGF (100 nM) and tested for binding to scCD3εγ. […] The difference in EC50 of a construct in presence and absence of VEGF can be referred to as the “activation window”.
(§2) Switchdrug DARPins that were mixed with VEGF were titrated and pre-incubated for 1 day with VEGF in order to establish the thermodynamic equilibrium. These samples were loaded on the ELISA plate, incubated and washed, before the bound Switchdrug DARPins were detected as described above.

scCD3εγ [2] = molecular target: T1, scCD3εγ; assay: ELISA: plate-bound biotinylated scCD3εγ, His-tagged construct titrated without and with 100 nM soluble VEGF
Description: as §1, §2

VEGF165 [3] = molecular target: T2, VEGF165 (UniProt P15692-4 27-191, biotinylated in the ELISA of Example 4 (site not stated)); assay: ELISA: plate-bound biotinylated VEGF165, His-tagged construct titrated, no soluble VEGF, anti-His-HRP detection
T2 construct: also called biotinylated VEGF165; soluble VEGF

VEGF165 [4] = molecular target: T2, VEGF165; assay: SPR (ProteOn), VEGF165 immobilized, single-trace 50 nM, 25 C
VEGF165 [5] = molecular target: T2, VEGF165; assay: ELISA: plate-bound biotinylated VEGF165, His-tagged binder titrated, anti-His-HRP detection
Description: Binding is detected via an HRP-labeled anti-His antibody.
Then a titration of the Switchdrug DARPins was applied, incubated and washed. Detection of bound his-tagged constructs was done by anti-RGS(his)4 mAb HRP conjugate, and detected by TMB substrate.

scCD3εγ [6] = molecular target: T1, scCD3εγ; assay: ELISA on scCD3εγ, DARPin titrated
scCD3εγ [7] = molecular target: T1, scCD3εγ; assay: SPR, bio-scCD3εγ coated on NAD chip, DARPin 333.33-4.11 nM
scCD3εγ [8] = molecular target: T1, scCD3εγ; assay: ELISA: plate-bound biotinylated scCD3εγ, His-tagged α-CD3 mono-DARPin titrated, no VEGF
scCD3εγ [9] = molecular target: T1, scCD3εγ; assay: as above
scCD3εγ [10] = molecular target: T1, scCD3εγ; assay: as above
scCD3εγ [11] = molecular target: T1, scCD3εγ; assay: as above
scCD3εγ [12] = molecular target: T1, scCD3εγ; assay: as above
scCD3εγ [13] = molecular target: T1, scCD3εγ; assay: as above
scCD3εγ [14] = molecular target: T1, scCD3εγ; assay: as above
scCD3εγ [15] = molecular target: T1, scCD3εγ; assay: ELISA: plate-bound biotinylated scCD3εγ, His-tagged α-CD3 mono-DARPin titrated in presence of 100 nM soluble VEGF
Description: (§3) ELISA assays offer an easy and qualitative way to determine the binding of the Switchdrug DARPin constructs to a target. The difference in binding of Switchdrug DARPins to scCD3εγ in presence and absence of VEGF was assessed. […] Said Switchdrug DARPins were mixed with a constant concentration of VEGF (100 nM) and tested for binding to scCD3εγ. […] The difference in EC50 of a construct in presence and absence of VEGF can be referred to as the “activation window”.
as §2

scCD3εγ [16] = molecular target: T1, scCD3εγ; assay: as above
Description: as §3, §2

scCD3εγ [17] = molecular target: T1, scCD3εγ; assay: ELISA: plate-bound biotinylated scCD3εγ, His-tagged construct titrated, no VEGF
Description: as §1, §2

scCD3εγ [18] = molecular target: T1, scCD3εγ; assay: as above
Description: as §2

scCD3εγ [19] = molecular target: T1, scCD3εγ; assay: ELISA: plate-bound biotinylated scCD3εγ, His-tagged construct titrated in presence of 100 nM soluble VEGF
Description: as §1, §2

scCD3εγ [20] = molecular target: T1, scCD3εγ; assay: ELISA: plate-bound biotinylated scCD3εγ, His-tagged construct titrated without and with 100 nM soluble VEGF
Description: as §1, §2

T2 sequence (P15692 other isoform, or with tags, fused parts or gaps limits assumed): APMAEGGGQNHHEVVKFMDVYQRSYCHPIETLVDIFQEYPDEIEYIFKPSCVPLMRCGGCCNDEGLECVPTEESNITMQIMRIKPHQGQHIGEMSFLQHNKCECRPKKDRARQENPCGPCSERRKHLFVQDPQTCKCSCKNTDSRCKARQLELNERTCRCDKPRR

B1: Switchdrug DARPin 18-B (designed binder)
chain: MRGSHHHHHHGSDLDKKLLEAARAGQDDEVRILLKAGADVNAKDSTGWTPLHLAAPWGHPEIVEVLLKAGADVNAKDFQGWTPLHLAAAAGHLEIVEVLLKAGADVNAKDVYGWTPLHIAAASGHLEIVEVLLKAGADVNAKDWLGWTPLHLAASHGHLEIVEVLLKAGADVNAQDKSGKTPADLAARAGHQDIAEVLQKAAGSPTPTPTTPTPTPTTPTPTPTGSDLGKKLLQAARAGQLDEVRELLKAGADVNAKDQYGRTPLHLAAIKGHLEIVEVLLKAGADVNAKDSLGYTPLHLAAVEGPLEIVEVLLKAGADVNAKDAYGQTPLHIAAAWGHLEIVEVLLKAVADVNAQDKSGKTPADLAARAGHQDIAEVLQKAAGSPTPTPTTPTPTPTTPTPTPTGSDLGQKLLEAAWAGQDDEVRELLKAGADVNAKNSRGWTPLHTAAQTGHLEIFEVLLKAGADVNAKNDKRVTPLHLAAALGHLEIVEVLLKAGADVNARDSWGTTPADLAAKYGHQDIAEVLQKAA
notes: also called 2-in-1 DARPin18 in Format B
- EC50 (read off the curve) (scCD3εγ [1]): ~50 nM
- shift in EC50 upon addition of 100 nM VEGF (scCD3εγ [2]): ~19 fold
- EC50 (read off the curve) (VEGF165 [3]): ~20 nM

B2: VEGF-binder (SEQ ID NO: 1) (designed binder)
chain: DLDKKLLEAARAGQDDEVRILLKAGADVNAKDSTGWTPLHLAAPWGHPEIVEVLLKAGADVNAKDFQGWTPLHLAAAAGHLEIVEVLLKAGADVNAQDKSGKTPADLAADAGHEDIAEVLQKAA
notes: said to be disclosed in WO 2016/156596
- Kd (VEGF165 [4]): 0.21 nM
- koff (VEGF165 [4]): 0.00014 s⁻¹
- kon (VEGF165 [4]): 646000 M⁻¹ s⁻¹
- EC50 (read off the curve) (VEGF165 [5]): ~0.5 nM

B3: CD3-specific binding domain (SEQ ID NO: 3) (designed binder)
chain: DLGQKLLEAAWAGQDDEVRELLKAGADVNAKNSRGWTPLHTAAQTGHLEIFEVLLKAGADVNAKNDKRVTPLHLAAALGHLEIVEVLLKAGADVNARDSWGTTPADLAAKYGHQDIAEVLQKAA
modifications: biotinylated when used as immobilized SPR ligand (site not stated)
notes: also called α-CD3 DARPin
- EC50 (read off the curve) (scCD3εγ [6]): ~3 nM
- Kd (scCD3εγ [7]): 2.03 nM
- EC50 (read off the curve) (scCD3εγ [8]): ~5 nM
- EC50 (read off the curve) (scCD3εγ [9]): ~5 nM
- EC50 (read off the curve) (scCD3εγ [10]): ~3 nM
- EC50 (read off the curve) (scCD3εγ [11]): ~3 nM
- EC50 (read off the curve) (scCD3εγ [12]): ~3 nM
- EC50 (read off the curve) (scCD3εγ [13]): ~3 nM
- EC50 (read off the curve) (scCD3εγ [14]): ~4 nM
- EC50 (read off the curve) (scCD3εγ [15]): ~4 nM
- EC50 (read off the curve) (scCD3εγ [16]): ~4 nM

B4: Switchdrug DARPin 17-1 (designed binder)
chain: MRGSHHHHHHGSDLGQKLLEAAWAGQDDEVRELLKAGADVNAKNSRGWTPLHTAAQTGHLEIFEVLLKAGADVNAKNDKRVTPLHLAAALGHLEIVEVLLKAGADVNARDSWGTTPADLAAKYGHQDIAEVLQKAAGSPTPTPTTPTPTPTTPTPTPTGSDLGKKLLQAARAGQLDEVRELLKAGADVNAKDSTGWTPLHLAAPWGHPEIVEVLLKAGADVNAKDFQGWTPLHLAAAAGHLEIVEVLLKAGADVNAKDWLGWTPLHLAASHGHLEIVEVLLKAGADVNAQDKSGKTPADLAARAGHQDIAEVLQKAA
notes: also called 2-in-1 DARPin17 in Format 1
- EC50 (read off the curve) (scCD3εγ [17]): ~70 nM
- EC50 (read off the curve) (scCD3εγ [18]): ~50 nM
- EC50 (read off the curve) (scCD3εγ [19]): ~3 nM
- shift in EC50 upon addition of 100 nM VEGF (scCD3εγ [20]): ~27 fold
